Test [1] concerns the target Toll-like receptor 4 on the surface of RAW 264.7 murine macrophages (mouse (endogenous in RAW 264.7)) (UniProt Q9QUK6).
Test [2] shares this target. The source holds these as a separate data set.
The target is the same in test [3]. The source holds these as a separate data set.

Sequence of UniProt Q9QUK6 (Q9QUK6 26-835): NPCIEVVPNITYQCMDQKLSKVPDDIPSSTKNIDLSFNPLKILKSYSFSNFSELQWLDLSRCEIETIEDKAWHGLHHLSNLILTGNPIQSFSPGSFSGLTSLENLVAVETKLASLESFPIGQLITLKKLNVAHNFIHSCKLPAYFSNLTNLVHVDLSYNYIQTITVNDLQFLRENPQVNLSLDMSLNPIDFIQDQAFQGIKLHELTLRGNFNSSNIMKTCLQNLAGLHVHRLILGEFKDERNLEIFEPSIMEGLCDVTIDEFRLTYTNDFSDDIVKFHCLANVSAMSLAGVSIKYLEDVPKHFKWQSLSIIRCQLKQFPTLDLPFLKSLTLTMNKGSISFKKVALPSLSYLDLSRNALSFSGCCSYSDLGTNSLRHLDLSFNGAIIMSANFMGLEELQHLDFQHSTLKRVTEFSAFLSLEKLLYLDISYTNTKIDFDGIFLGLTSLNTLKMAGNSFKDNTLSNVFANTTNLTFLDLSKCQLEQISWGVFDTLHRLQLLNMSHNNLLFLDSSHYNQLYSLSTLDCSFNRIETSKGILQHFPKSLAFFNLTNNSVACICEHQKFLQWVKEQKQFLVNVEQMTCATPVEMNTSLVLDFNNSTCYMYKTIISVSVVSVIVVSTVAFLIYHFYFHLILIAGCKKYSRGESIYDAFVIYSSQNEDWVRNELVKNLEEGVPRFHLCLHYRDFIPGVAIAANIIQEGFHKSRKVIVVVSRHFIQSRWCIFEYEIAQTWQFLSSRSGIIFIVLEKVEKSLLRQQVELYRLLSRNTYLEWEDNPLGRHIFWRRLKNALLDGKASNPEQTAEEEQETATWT

In turn, “recombinant Rv0297PGRS (PGRS domain of the Mycobacterium tuberculosis PE_PGRS protein Rv0297) (from UniProt Q6MX50 1-591) (domain or fragment)” had a total percentage of apoptotic RAW 264.7 cells (annexin V/PI staining) with 20 and 40 µg/ml rRv0297PGRS (43.83% and 58.37%) in test [1] of 58.4%. In test [2], this substance had a fold increase of NO (Griess reagent) in RAW 264.7 cells stimulated with 20 µg/ml rRv0297PGRS for 30 h in contrast to unstimulated cells; unchanged in RAW-ΔTLR4 cells of 2 fold; a fold increment of ROS (CellROX green) in RAW 264.7 cells stimulated with rRv0297PGRS for 30 h compared to untreated cells (1.53 and 1.80); unchanged in RAW-ΔTLR4 cells of 1.8 fold. Besides, the mortality of RAW 264.7 macrophages (alamarBlue assay, 48 h) with 2.5, 5, 10, 20 and 40 µg/ml rRv0297PGRS (12.42% to 36.07%); no significant change in RAW-ΔTLR4 cells in test [3] was determined as 36.1%.

The values above are taken from article PMC6016250.
